Measurements reported in patent CN114773459A (UNIV SHENZHEN, dated 2022).

Target: 新型冠状病毒(SARS-CoV-2) S1蛋白 (野生型) (SARS-CoV-2, UniProt P0DTC2 16-685)

B1: 纳米抗体Nb-H6 (VHH)
VHH: QLVESGGGLVQAGDSLRLSCAASERALSSFHMGWFRQAPGKQRAFVAAIKWRDGTTYYADSVKGRFTISRDNAKNTVYLQMNSLEPEDTAVYYCYYRGRWGTYWGQGTQVTVSS
How did the IC50 turn out when B1 was run?
Its IC50 is 9.8 µM.
